Source: publication PMC9090809 (2022)

B1: recombinant GABARAP (natural protein)
chain: MKFVYKEEHPFEKRRSEGEKIRKKYPDRVPVIVEKAPKARIGDLDKKKYLVPSDLTVGQFYFLIRKRIHLRAEDALFFFVNNVIPPTSATMGQLYQEHHEEDFFLYIAYSDESVYGL
B2: recombinant LC3C (natural protein)
chain: MPPPQKIPSVRPFKQRKSLAIRQEEVAGIRAKFPNKIPVVVERYPRETFLPPLDKTKFLVPQELTMTQFLSIIRSRMVLRATEAFYLLVNNKSLVSMSATMAEIYRDYKDEDGFVYMTYASQETFG

Target: LC3-trap Wx8 (covalently labelled with an N-hydroxysuccinimide (RED-NHS) dye in the MST)
Experiment: MST

Binder	Kd
B1	24.8 nM
B2	3.4 nM
